Source: the supplement of paper PMC11780869

System: Bacillus subtilis
Test: cleaved RNA product abundance (RNA/gDNA barcode ratio) relative to median wild-type variant (ratio to wild type); higher = more accumulation of the downstream cleavage product
Settings: cleavage site: cggR-gapA (positions -7 to +36 mutated)
How it was run: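 B. subtilis strains with chromosomally integrated reporter mRNAs (truncated aprE or tetM) holding barcoded, mutagenized RNase Y cleavage-site windows grew in LB at 37°C from OD600 0.0003 to 0.3. Cleaved product abundance is each construct's RNA:gDNA barcode ratio, scaled to the median construct with the unmutated site. It came from sequencing barcodes of gel-selected, reverse-transcribed cleaved RNA and of genomic DNA.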

[1] = experiment (reporter, strain, medium): exp 4a: truncated aprE reporter, strain BJT201 with 2% xylose (RNase J1 expressed)
[2] = experiment (reporter, strain, medium): exp 2b: truncated aprE reporter, strain BJT200

“ACAGACGAAGGAGCCGCAAAGAAGTTATTAAGCGATGAATAATCCGTCAATATAAATATCTCTCACTTATTTAAA” was tested, and the “cleaved RNA product abundance” value [1] was 0.139.
With “ACAGACGAAGGAGCCGCAAAGAAGTTATTAAGCGATGAATAATCCTTCAATATAAATATCTCTCACTTATTTAAA” the “cleaved RNA product abundance” value [2] was 0.0918 and the “cleaved RNA product abundance” value [1] was 0.119.
For “ACAGACGAAGGAGCCGCAAAGAAGTTATTAAGCGATGAATAATCGCTCAATATAAATATCTCTCACTTATTTAAA”, the “cleaved RNA product abundance” value [2] was 0.561 and the “cleaved RNA product abundance” value [1] was 0.726.
For “ACAGACGAAGGAGCCGCAAAGAAGTTATTAAGCGATGAATAATCTCTCAATATAAATATCTCTCACTTATTTAAA”, the “cleaved RNA product abundance” value [1] was 0.0997.
For “ACAGACGAAGGAGCCGCAAAGAAGTTATTAAGCGATGAATAATGCCTCAATATAAATATCTCTCACTTATTTAAA”, the “cleaved RNA product abundance” value [1] was 0.112.
With “ACAGACGAAGGAGCCGCAAAGAAGTTATTAAGCGATGAATAATTCCTCAATATAAATATCTCTCACTTATTTAAA” the “cleaved RNA product abundance” value [2] was 0.0741 and the “cleaved RNA product abundance” value [1] was 0.096.
In the case of “ACAGACGAAGGAGCCGCAAAGAAGTTATTAAGCGATGAATACTCCCTCAATATAAATATCTCTCACTTATTTAAA”, the “cleaved RNA product abundance” value [1] is reported as 0.102.
With “ACAGACGAAGGAGCCGCAAAGAAGTTATTAAGCGATGAATTATCCCTCAATATAAATATCTCTCACTTATTTAAA” the “cleaved RNA product abundance” value [2] was 0.101 and the “cleaved RNA product abundance” value [1] was 0.101.
In the case of “ACAGACGAAGGAGCCGCAAAGAAGTTATTAAGCGATGACTAATCCCTCAATATAAATATCTCTCACTTATTTAAA”, the “cleaved RNA product abundance” value [1] is reported as 0.0948.
With “ACAGACGAAGGAGCCGCAAAGAAGTTATTAAGCGATGCATAATCCCTCAATATAAATATCTCTCACTTATTTAAA” the “cleaved RNA product abundance” value [1] was 0.125.
“ACAGACGAAGGAGCCGCAAAGAAGTTATTAAGCGATGTATAATCCCTCAATATAAATATCTCTCACTTATTTAAA” was tested, and the “cleaved RNA product abundance” value [1] was 0.08.
In the case of “ACAGACGAAGGAGCCGCAAAGAAGTTATTAAGCGATTAATAATCCCTCAACATAAATATCTCTCACTTATTTAAA”, the “cleaved RNA product abundance” value [1] is reported as 0.0653.
“ACAGACGAAGGAGCCGCAAAGAAGTTATTAAGCGATTAATAATCCCTCAATATAAATATCTCTCACTTATTTAAA” was tested, and the “cleaved RNA product abundance” value [2] was 0.0842 and the “cleaved RNA product abundance” value [1] was 0.0983.
In the case of “ACAGACGAAGGAGCCGCAAAGAAGTTATTAAGCGATTAATAATTCCTCAATATAAATATCTCTCACTTATTTAAA”, the “cleaved RNA product abundance” value [1] is reported as 0.0664.
For “ACAGACGAAGGAGCCGCAAAGAAGTTATTAAGCGCTGAATAATCCCTCAATATAAATATCTCTCACTTATTTAAA”, the “cleaved RNA product abundance” value [2] was 0.0756 and the “cleaved RNA product abundance” value [1] was 0.0581.
With “ACAGACGAAGGAGCCGCAAAGAAGTTATTAAGCTATGAATAATCCCTCAATATAAATATCTCTCACTTATTTAAA” the “cleaved RNA product abundance” value [2] was 0.0874 and the “cleaved RNA product abundance” value [1] was 0.104.
For “ACAGACGAAGGAGCCGCAAAGAAGTTATTAAGGAAAGAATAATCCCTCAATATAAATATCTCTCACTTATTTAAA”, the “cleaved RNA product abundance” value [1] was 0.0978.
“ACAGACGAAGGAGCCGCAAAGAAGTTATTAAGGAACGAATAATCCCTCAATATAAATATCTCTCACTTATTTAAA” was tested, and the “cleaved RNA product abundance” value [2] was 0.0842 and the “cleaved RNA product abundance” value [1] was 0.073.
In the case of “ACAGACGAAGGAGCCGCAAAGAAGTTATTAAGGAAGGAATAATCCCTCAATATAAATATCTCTCACTTATTTAAA”, the “cleaved RNA product abundance” value [1] is reported as 0.233.
With “ACAGACGAAGGAGCCGCAAAGAAGTTATTAAGGAATAAATAATCCCTCAATACAAATATCTCTCACTTATTTAAA” the “cleaved RNA product abundance” value [1] was 0.0573.
For “ACAGACGAAGGAGCCGCAAAGAAGTTATTAAGGAATAAATAATCCCTCAATATAAATATCTCTCACTTATTTAAA”, the “cleaved RNA product abundance” value [2] was 0.0901 and the “cleaved RNA product abundance” value [1] was 0.0868.
In the case of “ACAGACGAAGGAGCCGCAAAGAAGTTATTAAGGAATCAATAATCCCTCAATATAAATATCTCTCACTTATTTAAA”, the “cleaved RNA product abundance” value [2] is reported as 0.0834 and the “cleaved RNA product abundance” value [1] is reported as 0.109.
In the case of “ACAGACGAAGGAGCCGCAAAGAAGTTATTAAGGAATGAAAAATCCCTCAATATAAATATCTCTCACTTATTTAAA”, the “cleaved RNA product abundance” value [2] is reported as 0.0892 and the “cleaved RNA product abundance” value [1] is reported as 0.137.
For “ACAGACGAAGGAGCCGCAAAGAAGTTATTAAGGAATGAACAATCCCTCAATATAAATATCTCTCACTTATTTAAA”, the “cleaved RNA product abundance” value [2] was 0.0794 and the “cleaved RNA product abundance” value [1] was 0.124.
“ACAGACGAAGGAGCCGCAAAGAAGTTATTAAGGAATGAAGAATCCCTCAATATAAATATCTCTCACTTATTTAAA” was tested, and the “cleaved RNA product abundance” value [2] was 0.0952 and the “cleaved RNA product abundance” value [1] was 0.17.
In the case of “ACAGACGAAGGAGCCGCAAAGAAGTTATTAAGGAATGAATAAACCCTCAATATAAATATCTCTCACTTATTTAAA”, the “cleaved RNA product abundance” value [2] is reported as 0.0981 and the “cleaved RNA product abundance” value [1] is reported as 0.11.
With “ACAGACGAAGGAGCCGCAAAGAAGTTATTAAGGAATGAATAACCCCTCAATATAAATATCTCTCACTTATTTAAA” the “cleaved RNA product abundance” value [1] was 0.101.
With “ACAGACGAAGGAGCCGCAAAGAAGTTATTAAGGAATGAATAATACCTCAATATAAATATCTCTCACTTATTTAAA” the “cleaved RNA product abundance” value [2] was 0.121 and the “cleaved RNA product abundance” value [1] was 0.124.
For “ACAGACGAAGGAGCCGCAAAGAAGTTATTAAGGAATGAATAATCACTCAATATAAATATCTCTCACTTATTTAAA”, the “cleaved RNA product abundance” value [2] was 0.111 and the “cleaved RNA product abundance” value [1] was 0.124.
In the case of “ACAGACGAAGGAGCCGCAAAGAAGTTATTAAGGAATGAATAATCCATCAATATAAATATCTCTCACTTATTTAAA”, the “cleaved RNA product abundance” value [2] is reported as 0.0915 and the “cleaved RNA product abundance” value [1] is reported as 0.124.
In the case of “ACAGACGAAGGAGCCGCAAAGAAGTTATTAAGGAATGAATAATCCCACAATATAAATATCTCTCACTTATTTAAA”, the “cleaved RNA product abundance” value [1] is reported as 0.0935.
“ACAGACGAAGGAGCCGCAAAGAAGTTATTAAGGAATGAATAATCCCCCAATATAAATATCTCTCACTTATTTAAA” was tested, and the “cleaved RNA product abundance” value [2] was 0.122 and the “cleaved RNA product abundance” value [1] was 0.115.
For “ACAGACGAAGGAGCCGCAAAGAAGTTATTAAGGAATGAATAATCCCGCAATATAAATATCTCTCACTTATTTAAA”, the “cleaved RNA product abundance” value [1] was 0.0576.
“ACAGACGAAGGAGCCGCAAAGAAGTTATTAAGGAATGAATAATCCCTAAATATAAATATCTCTCACTTATTTAAA” was tested, and the “cleaved RNA product abundance” value [2] was 0.152 and the “cleaved RNA product abundance” value [1] was 0.147.
For “ACAGACGAAGGAGCCGCAAAGAAGTTATTAAGGAATGAATAATCCCTCAAAATAAATATCTCTCACTTATTTAAA”, the “cleaved RNA product abundance” value [2] was 0.0937 and the “cleaved RNA product abundance” value [1] was 0.122.
In the case of “ACAGACGAAGGAGCCGCAAAGAAGTTATTAAGGAATGAATAATCCCTCAACATAAATATCTCTCACTTATTTAAA”, the “cleaved RNA product abundance” value [1] is reported as 0.0941.
For “ACAGACGAAGGAGCCGCAAAGAAGTTATTAAGGAATGAATAATCCCTCAAGATAAATATCTCTCACTTATTTAAA”, the “cleaved RNA product abundance” value [1] was 0.0834.
“ACAGACGAAGGAGCCGCAAAGAAGTTATTAAGGAATGAATAATCCCTCAATAAAAATATCTCTCACTTATTTAAA” was tested, and the “cleaved RNA product abundance” value [2] was 0.0974 and the “cleaved RNA product abundance” value [1] was 0.0766.
With “ACAGACGAAGGAGCCGCAAAGAAGTTATTAAGGAATGAATAATCCCTCAATATAAAAAACTCTCACTTATTTAAA” the “cleaved RNA product abundance” value [1] was 0.0884.
In the case of “ACAGACGAAGGAGCCGCAAAGAAGTTATTAAGGAATGAATAATCCCTCAATATAAAAATCTCTCACTTATTTAAA”, the “cleaved RNA product abundance” value [2] is reported as 0.127 and the “cleaved RNA product abundance” value [1] is reported as 0.161.
With “ACAGACGAAGGAGCCGCAAAGAAGTTATTAAGGAATGAATAATCCCTCAATATAAACATCTCTCACTTATTTAAA” the “cleaved RNA product abundance” value [1] was 0.121.
For “ACAGACGAAGGAGCCGCAAAGAAGTTATTAAGGAATGAATAATCCCTCAATATAAAGATCTCTCACTTATTTAAA”, the “cleaved RNA product abundance” value [1] was 0.0766.
“ACAGACGAAGGAGCCGCAAAGAAGTTATTAAGGAATGAATAATCCCTCAATATAAATAACTCTCACTTATTTAAA” was tested, and the “cleaved RNA product abundance” value [1] was 0.21.
In the case of “ACAGACGAAGGAGCCGCAAAGAAGTTATTAAGGAATGAATAATCCCTCAATATAAATACCTCTCACTTATTTAAA”, the “cleaved RNA product abundance” value [2] is reported as 0.0997.
